The target in assay [1] is T1, Human CD228 protein (human, UniProt P08582 20-708, limits assumed).
T1 construct: Recombinant protein made in CHO cells, purified over a Ni column; The printed entry begins with the leader (MRGPSG...) and ends with ten His; also called hCD228; CD228-His protein
T1 sequence: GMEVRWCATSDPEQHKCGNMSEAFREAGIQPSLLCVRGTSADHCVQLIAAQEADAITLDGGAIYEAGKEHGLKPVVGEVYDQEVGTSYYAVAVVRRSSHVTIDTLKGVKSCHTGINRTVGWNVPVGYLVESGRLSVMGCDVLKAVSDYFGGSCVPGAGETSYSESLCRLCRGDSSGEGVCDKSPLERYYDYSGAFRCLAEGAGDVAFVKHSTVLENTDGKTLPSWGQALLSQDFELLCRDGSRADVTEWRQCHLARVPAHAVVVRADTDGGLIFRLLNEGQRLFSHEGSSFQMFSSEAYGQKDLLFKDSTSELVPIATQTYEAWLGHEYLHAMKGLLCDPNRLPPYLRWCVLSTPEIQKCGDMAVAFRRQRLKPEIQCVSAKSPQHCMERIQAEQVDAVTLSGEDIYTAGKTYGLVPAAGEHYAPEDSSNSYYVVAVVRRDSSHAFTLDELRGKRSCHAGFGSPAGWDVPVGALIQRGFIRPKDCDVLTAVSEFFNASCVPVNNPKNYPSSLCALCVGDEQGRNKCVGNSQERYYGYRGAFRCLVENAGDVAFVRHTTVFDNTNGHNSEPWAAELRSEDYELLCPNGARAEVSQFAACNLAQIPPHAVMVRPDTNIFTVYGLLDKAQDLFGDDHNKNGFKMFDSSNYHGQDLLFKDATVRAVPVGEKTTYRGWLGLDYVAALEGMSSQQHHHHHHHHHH
The assay can be described thus: Octet competition on His-chip CD228; competitor: CA13. As to the method:
(§1) CD228 proteins were immobilized on His chips at 10 μg/mL with a threshold of 0.5 nm. The first CD228 antibody (30 μg/mL) was immobilized, and the competitive binding of the second CD228 antibody (30 μg/mL) was analyzed. The Octet 8K system was used to analyze the response of antibody 2 and to determine whether antibody 1 and antibody 2 were in competition.
(§2) The final competition analysis was conducted using the following calculation method: 1—response value/blank value.
In general terms: Biolayer interferometry detects binding as a change in optical thickness at a sensor tip.

Assay [2] deals with T1, Human CD228 protein. In words: Octet competition on His-chip CD228; competitor: BA352. As for the experimental part: as §1
Assay [3] deals with T1, Human CD228 protein. In words: Octet competition on His-chip CD228; competitor: CA185. As to the method: as §1
The target in assay [4] is T1, Human CD228 protein. The assay can be described thus: Octet competition on His-chip CD228; competitor: CA518. As to the method:
as §1

The target in assay [5] is T1, Human CD228 protein. The assay can be described thus: Octet competition on His-chip CD228; competitor: CA149. As to the method:
as §1, §2

Assay [6] has as its target T2, CD228 protein on human melanoma SK-MEL-5 cells (human, UniProt P08582 20-709).
T2 construct: whole, on cells; Endogenous CD228 on the cell line; also called SK-MEL-5 cells (expressing CD228 proteins)
T2 sequence (looked up): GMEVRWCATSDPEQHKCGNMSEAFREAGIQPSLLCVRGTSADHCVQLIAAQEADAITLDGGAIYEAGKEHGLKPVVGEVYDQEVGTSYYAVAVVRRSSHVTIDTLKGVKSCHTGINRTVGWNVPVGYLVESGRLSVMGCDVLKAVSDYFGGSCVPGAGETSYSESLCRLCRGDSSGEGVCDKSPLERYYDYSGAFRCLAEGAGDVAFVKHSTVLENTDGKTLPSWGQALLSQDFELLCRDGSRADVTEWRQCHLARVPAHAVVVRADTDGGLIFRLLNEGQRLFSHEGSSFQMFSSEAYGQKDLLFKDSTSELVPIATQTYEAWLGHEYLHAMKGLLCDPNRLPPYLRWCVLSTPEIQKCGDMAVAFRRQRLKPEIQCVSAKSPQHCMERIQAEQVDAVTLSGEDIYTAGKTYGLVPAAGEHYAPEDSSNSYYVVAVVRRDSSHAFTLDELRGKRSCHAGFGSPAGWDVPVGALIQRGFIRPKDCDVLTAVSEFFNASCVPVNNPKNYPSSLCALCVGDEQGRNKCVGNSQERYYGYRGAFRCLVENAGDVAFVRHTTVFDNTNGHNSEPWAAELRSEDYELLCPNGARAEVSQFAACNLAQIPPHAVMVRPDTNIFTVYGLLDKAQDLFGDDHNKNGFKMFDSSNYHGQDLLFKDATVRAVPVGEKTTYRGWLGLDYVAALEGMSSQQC
In words: flow cytometry on SK-MEL-5 cells, fluorescent secondary antibody, MFI. As to the method:
To a 96-well round-bottom plate, human melanoma SK-MEL-5 cells (ATCC, HTB-70) were added with a cell density of 7E4 cells/50 μL/well. The antibodies were serially diluted with an FACS buffer (PBS, Boster Biological Technology, Catalog No. PYG0021) and added to the 96-well round-bottom plate at 50 μL/well. The plate was then incubated at 4° C. for 1 h. The supernatant was discarded after centrifugation at 400 g for 4 min. The plate was washed once with FACS buffer, before a fluorescent secondary antibody (Jackson, 109545-008) at 100 μL/well was added. The mixture was incubated at 4° C. in the dark for 30 min and centrifuged at 400 g for 4 min. The supernatant was discarded. The cells were washed once with FACS buffer, resuspended in FACS buffer at 100 μL/well, and loaded on a flow cytometer (ACEA Pharma, NovoCyte 2060) for analysis. […] The isotype reference antibody in FIG. 4 is an irrelevant antibody targeting other antigens with constant regions similar to the experimental anti-CD228 antibodies but with different variable regions.
A general note: A flow cytometer gives signals particle by particle.

Seven molecules from patent publication US20250121082A1 (SHANDONG BOAN BIOTECHNOLOGY, published 2025) can be followed below.

B1: CA13 (antibody, human IgG1, kappa, V domains shown)
VH: EVQLVESGGGVVQPGRSLRLSCAASGFTFSSYAMHWVRQAPGKGLEWVAVISYDGSNKYYADSVKGRFTISRDNSKNTLFLQMNSLRAEDTAVYYCARDVYHYGSRSPYYYGMDVWGQGTTVTVSS
VL: DIVMTQSPSSLSASVGDRVTITCRASQGISNYLAWFQQKPGKVPKLLIYAASTLQSGVPSRFSGSGSGTDFTLTISSLQPEDVATYYCQKYNSAPFTFGPGTKVDIKR
notes: Intact IgG1 from fully human antibody-transgenic mice
A word on the EC50: it is the midpoint of the concentration-response curve. Higher therefore signals a need for much substance. With B1, the entries for the “competition (1-response value/blank value)” value in the assay with Human CD228 protein [1] and with Human CD228 protein [5] were 100% and 101%, respectively. For the same molecule, the Octet response value is 0.427 in the assay with Human CD228 protein [2], -0.0061 with Human CD228 protein [3] and -0.0081 in the assay with Human CD228 protein [4]. Besides, the EC50 in assay [6] came to 0.083 µg/mL.

B2: CA67 (antibody, human IgG1, kappa, V domains shown)
VH: EVQLVESGGGVVQPGRSLRLSCAASGFTFSSYAMHWVRQAPGKGLEWVAVISYDGSNKYYADSVKGRFTISRDNSKNTLYLQMNSLRAEDTAVYYCARDVYHYGSRSPYYYGMDVWGQGTTVTVSS
VL: DIQMTQSPSSLSASVGDRVTITCRASQAISNYLAWYQQKPGKVPKLLIYAASTLHPGVPSRFSGSGSGTDFTLTISSLQPEDVATYYCQKYNSAPFTFGPGTKVDIKR
notes: Intact IgG1
As to B2, the “competition (1-response value/blank value)” value with Human CD228 protein [1] is 102%; with Human CD228 protein [5] it was 103%. Moreover, the Octet response value with Human CD228 protein [2] was 0.423; in the assay with Human CD228 protein [3], -0.0132; with Human CD228 protein [4], -0.0133. Besides, it took 0.096 µg/mL to reach a half-maximal effect in assay [6] (EC50).

B3: CA518 (antibody, human IgG1, kappa, V domains shown)
VH: EVQLVESGGGVVQPGRSLRLSCAASGFTFSSYAMHWVRQAPGKGLEWVAVISYDGSNKYHADSVKGRFTISRDNSKNTLFLQMNSLRAEDTAVYYCVRDVYHYGSRSPYYYGMDVWGQGTTVTVSS
VL: DIQMTQSPSSVSASVGDRVTITCRASQGISSWLAWYQQKPGKAPKLLIYAASSLQSGVPSRFSGSGSGTDFTLTISSLQPEDVATYYCQKYNSAPFTFGPGTKVDIKR
notes: Intact IgG1
Consider B3, for which the “competition (1-response value/blank value)” value in the assay with Human CD228 protein [1] amounted to 98%; in the assay with Human CD228 protein [5], 101%. Moreover, the Octet response value was 0.415 with Human CD228 protein [2], -0.0043 with Human CD228 protein [3] and -0.0046 with Human CD228 protein [4]. In assay [6], this molecule showed an EC50 of 0.081 µg/mL.

B4: BA352 (antibody, human IgG1, kappa, V domains shown)
VH: EVQLVESGGGVVQPGRSLRLSCAASGFTFSSYAMHWVRQAPGKGLEWVAVISYDGSNKYYADSVKGRFTISRDNSKNTLYLQMNSLRAEDTAVYYCARGPYLAAAGTALTFDIWGQGTMVTVSS
VL: DIQMTQSPSAMSASVGDRVTITCRASQGINNYLAWFQQKPGKVPKRLIYAASSLQSGVPSRFSGSGSGTEFTLTISSLQPEDFATYYCLQHNSYPFTFGPGTKVDIKR
notes: Intact IgG1
Consider B4, for which the “competition (1-response value/blank value)” value was -8% with Human CD228 protein [1] and -2% with Human CD228 protein [5]. Besides, the Octet response value turned out to be 0.0217 in the assay with Human CD228 protein [2], 0.426 with Human CD228 protein [3] and 0.458 with Human CD228 protein [4]. In assay [6], the EC50 turned out to be 0.152 µg/mL.

B5: reference antibody hL49 (antibody, human IgG1, kappa, V domains shown)
VH: QVQLQESGPGLVKPSETLSLTCTVSGDSITSGYWNWIRQPPGKGLEYIGYISDSGITYYNPSLKSRVTISRDTSKNQYSLKLSSVTAADTAVYYCARRTLATYYAMDYWGQGTLVTVSS
VL: DFVMTQSPLSLPVTLGQPASISCRASQSLVHSDGNTYLHWYQQRPGQSPRLLIYRVSNRFSGVPDRFSGSGSGTDFTLKISRVEAEDVGVYYCSQSTHVPPTFGQGTKLEIKR
notes: also called H149; hL49 analogy
Turning to B5, the “competition (1-response value/blank value)” value with Human CD228 protein [1] and with Human CD228 protein [5] was -6% each time. Moreover, the Octet response value with Human CD228 protein [2] came out at 0.177; in the assay with Human CD228 protein [3], 0.432; with Human CD228 protein [4] it was 0.456. The same molecule came in with a concentration giving a half-maximal response (EC50) in assay [6] of 0.195 µg/mL.

B6: CA149 (antibody, human IgG1, kappa, V domains shown)
VH: EVQLVESGGGVVQPGRSLRLSCAASGFTFSSYAMHWVRQAPGKGLEWVAVISFDGSNKYYTDSVKGRFTISRDNSKNTLYLQMNSLRAEDTAVYYCAREVPYYYGSGPFDYWGQGTLVTVSS
VL: EIVLTQSPATLSVSPGERATLSCRASQSVSSNLAWYQQKPGQAPRHLIDGASSRASGIPDRFSGSGSGTDFTLTISRLEPEDFAVYYCQQYGSSPPFTFGPGTKVDIKR
notes: Intact IgG1; also called CA149 antibody
Consider B6, for which the “competition (1-response value/blank value)” value in the assay with Human CD228 protein [1] came out at 97%; with Human CD228 protein [5], 99%. The results for the Octet response value in the assay with Human CD228 protein [2], with Human CD228 protein [3] and with Human CD228 protein [4] were 0.442, 0.0102 and 0.0079, respectively. Further, the EC50 in assay [6] was found to be 0.135 µg/mL.

B7: CA185 (antibody, human IgG1, kappa, V domains shown)
VH: EVQLVESGGGVVQPGRSLRLSCAASGFTFSSYAMHWVRQAPGKGLEWVAVISYDGSNKYYADSVKGRFTISRDNSKNTLYLQMNSLRAEDTAVYYCAREVPYYYGSGPFDYWGQGTLVTVSS
VL: EIVLTQSPGTLSLSPGERATLSCRASQSVSSSSLAWYQQKPGQAPRHLIDGASSRASGIPDRFSGSGSGTDFTLTISRLEPEDFAVYYCQQYGSSYTFGQGTKVDIKR
notes: Intact IgG1
In the case of B7, the results for the “competition (1-response value/blank value)” value with Human CD228 protein [1] and with Human CD228 protein [5] were 99% and 98%, respectively. Also, the Octet response value in the assay with Human CD228 protein [2] was 0.459; in the assay with Human CD228 protein [3], 0.0055; with Human CD228 protein [4], 0.0029. Moreover, a half-maximal effect in assay [6] (EC50) was put at 0.123 µg/mL.
